{
  "source": "paper PMC9901172",
  "key": {"[1]": {"target": "Imp9•XFD488-H2A-H2B complex (human | frog) (UniProt Q96P70)", "assay": "fluorescence polarisation"}, "[2]": {"target": "Kap114•XFD488-H2A-H2B complex (yeast | frog) (UniProt P53067)", "assay": "fluorescence polarisation"}},
  "note": "pKd: −log10 of the molar value.",
  "data": [
    {"substance": "yeast RanGTP (Saccharomyces cerevisiae Gsp1 residues 1-179 with Q71L) (from UniProt P32835 1-179) (domain or fragment)", "values": [
      {"measurement": "pKd", "setting": "[1]", "value": 6.82},
      {"measurement": "pKd", "setting": "[2]", "value": 6.57}
    ]}
  ]
}
